Assay results reported in a protein production outcome set (Wang et al. 2014).

Experiment: label from the status in PepcDB records

Q: For “MLAAWLGCVLPAGAGLPVETLRVPPGFRVELLTEAMPSAREMALSPAGILYVGSRTGKVYALPLQVPGATVRVVASGLEQPVGVAWRDGSLYVSAVSRVVRLDRIDSRLDDPPVPVVVSDRFPTETHHGWKFIAFGPDGKLYVPVGAPCNVCHRDEDRYANLMRMNADGSSLEVVARGIRNTVGFDWHPVTHELWFTDNGADMMGDDVPDDELNRITAPGQHFGYPFCHAGDVPDPEFGAGHPCSRYVPPVGKLGAHVAALGMRFYTGSNFPQAYRHNLFIAEHGSWNRSSKVGYRVVRVVLDAAGKVVRQEPFVEGWLRGERAWGRPVDVLVAPDGSLLVSDDYAGAVYRVRYTGKLEHHHHHH”, which protein production is on record?
A: Its protein production is “failed”.

Q: Which protein production does the source give for “WRRLVEEAARRDPDDVRLLVHVASDVWNFVDEHCTLVADAYRHVERQLAWRRENRLRLMTTALLDGTTRIADLPDVATALDLPEQGRYAVVSVAVAHPAGHVGTQLLSVPPGMRALWHTGTDVEHGIVHLGEREPKDLVDRVTVPIGARVGISRAVDGLAAVGDARRLAETALRACPESGGTVLLDEHLPAALLVSAPALGTALVNRVLGPLLSLDPSDRDLLLDTVSAWLDNDGSAQRAASRLYCHRNTVLNRLRRFEQLTGRCLTRPADVVDTSLALTARRL” here?
A: Its protein production is “failed”.

Q: Which protein production does the source give for “MCRALLSITMQIPLVKWTEGLNIKTIVSISYVCYAVAAIGFAFSSSIFWLLSTAVLFTAAESMLLNHMQTFVSRLAPNHIRGGYFAFFGPHWDISRTIGPFLGGMIFIKFGGAALFLAIAGIMALGGIAQYRAVSRLKKLVLYSTWY” here?
A: The protein production was “failed”.

Q: Which protein production does the source give for “MATRGSRSEKVKRIFQQFDGNHDGGLNREEMAALVVAVNPRVKFSDEQINAILDEVFRTYAEFIDPNKGLTYDGLLRTYDDGAGDVDRDFDALGLELNADETTIKGSEAASSSSITDERAVEAQKKQRTAAWAVSPNHGIVFDETWKLVDDLEILVKRLKSKQEKDGKLKADNNNNNVDAFSDAGWSRELGPSSEISEKRIYWEESSHDYGVFVKELGVLRSKADGARSREEAFDGHMAIGRVLYEHQLFKEALVSFKRACELQPTDVRPHFKAGNCLYVLGKCKESKDEFLLALEAAESGGNQWAYLLPQIYVNLGIALEGEGMVLSACEYYREAAILCPTHFRALKLLGSALFGVGEYRAAVKALEEAIYLKPDYADAHCDLASSLHSMGEDERAIEVFQRAIDLKPGHVDALYNLGGLYMDLGRFQRASEMYTRVLTVWPNHWRAQLNKAVSLLGAGETEEAKRALKEALKLTNRVELHDAISHLKHLQKKKGKNNGNGNGGEGPFIVVEPSKFKTVGEKTTLRPDLATALQIRAFQRVTRLGKCDVEAVRKEMRDNDVPVSYSGSGGPTKSIRKPNLEEILRRLLSSLKPDTFQGAIKAINEKILALLDDSGSGRVDMGMFYAVIAPLCGGHSDKRKRVAFDALLWRPVNEGSSQITKTDAVKYIKLLRAIYIPSHGMSEMLEVHGEEEAESSVTVTFNQFLAMFDDPDWGFGIMSTILKLEANDRNRHGNQVCSVCRYPVIGSRFKEVKARFSLCNQCYGEGKVPPSFKQEEYKFREYESEAEAMKAKCVCFSMQSHKKAIAT” here?
A: The protein production was “failed”.

Q: For “MMKDMTTGNPTKLIFLFAMPMLIGNLFQQFYTMIDAVIVGKFVSVDALAAVGATNSVNFFMISLIIGLMSGISVVVAQYFGFKDYDRLKDVIATATYAVVFSAIILTVAGVLLAKPLLILLRTPANILDDSTIFLTTLFIGILPMSLYNGMAAILRALGNSITPLIFLILSSLMNIALDFLFVVYMDMGVRGAAIATVLSQTAAAIAVIYYAYRHVPFMRIERAKFKLSTPLLKEMVRIGLPSGLQGSFISIGNMALQSLINGFGSSVVAAYTAASRIDSLTYQPGIAFGAASSMFAGQNIGAGKIDRVREGFWSGIKVVTAISIGITILVQLFARQFLLLFVDSSETEVINIGVSYLLIVSLFYVVVGILFVVRETLRGTGDAMVPLAMGIFELVSRLVIGFVLSLYIGYVGLWWATPVAWITATILGVWRYKSGAWQKKAVIRRK”, which protein production is on record?
A: Its protein production is “not failed”.

Q: For “MIRSLLLASAACALAFPAAAETVAIVNARLEPVSSPAIPNGTLVIKDGKIAALGASIQVPAGARVIDAKGGVVTPGLIAPSSNLGASEISGVRETRDDGTGSALSAAFDISYGVNPASTFLGLARDGGITGSAVTPVLSGTGGGAHEHADDGVVEEMTAGAHGDGDPPLFGGQAAFIRLKAGSPDIVEARKLAVTVSLGESGARAAGGSRGANLVLLRSALEDARAFASRRAAFEQGATRDFGLSRLDLQALIPVVQGKTPLLIRVSRAADIRQALKFAAEERIKIVLEGVEEGWMVADEIAKAGVPVILDPQDDLPGSFETLGSRLDNAARLHAAGVSVAINGSRDFNNLRQERLNAGLAVAHGLPYPAALAAVTLVPARIWGQADKVGSLEVGKLADVVVWNGDPLETTSWPTAVLIGGVEQPKDGRHEQLKARYAAGDQNGYPPAYR”, which protein production is on record?
A: Its protein production is “failed”.

Q: For “MQKRVVILLLDSFGIGASEDAKDFGDLGANTLGNIAKACFNNLADSNDRSGALKLPYLESLGLGLSALKAANELPLGFQSQPNLIGAYAYAQELSSAKDTISGHWEMMG”, which protein production is on record?
A: The protein production was “failed”.

Q: With “MEIKDLKRLARYNPEKMAKIPVFQSERMLYDLYALLPGQAQKVHVHEGSDKVYYALEGEVVVRVGEEEALLAPGMAAFAPAGAPHGVRNESASPALLLVVTAPRP” as the sequence, how does the protein production read?
A: The protein production was “not failed”.

Q: With “WLDLAPSTQVDTETSINVLSDIEFTLNGIYSTMQSSDAYSGRLVYYGDVTGDDMQAVSSTKRTGNYYRFNFTKDNGPSSHWSYLYSIIQNCNLILMNVDKLSIDEDETEYKNDLKGQALAIRGMALFDLTRIFGYPYLKDNGASLGVPIVKELSTIDSKPARNTVAECYTEIISDLKNSTELLSGDFNKGKVNRWAAMTLLSRVYLYKGEYNEALTMAENAIKGAEKEGYALWTNEEYPTAWGNDASASNPGEILFEIVNLTTDSPGKESMGYLNSYNGYDDMCITCSFYQLLKKDPKDVRLKILSFDKKYYAYVNKYQPQQGENITDANIPLIRLSEAYLNAAEAAVQTGDNAKAVKYLNSIVQRANPENSVEGKTLTLENVLDERRKELVAEGHRMYDVIRNGMTVKRIDVKDSDINKTKHNTAYMEYDWNFHKILLPIPKKEMDANPNMKQNPGYVD” as the sequence, how does the protein production read?
A: The protein production was “not failed”.

Q: For “INRRRDSKQMTEHNLSVVNTATLYIVPTPIGNLGDITQRAIEVLKSVDLIAAEDTRHTGKLLSHFGIASQTFALHDHNEQHKADLLISKLQQGLSIALVSDAGTPLISDPGYHLVNRCRQANVNVVPLPGA”, which protein production is on record?
A: The protein production was “failed”.

Q: With “MERKKITFDSFIRGSICCALIVGLLILFKRLSGVLLPFFVAWLIAYMIYPLVKFFQYKLRFKSRIISIFCALFSITIVGISLFYLLVPPMLAEMGRMNDLLVTYLTNGAYSSGTVPPTLSEFIHKHIDLQALNRILSEENIMNTIKETVPKLWALVAESINILFSVFASFIILLYVVFILLDYESIAEGWLHLLPGKYRTFASNLVNDIQDGMNRYFRGQAFVAFCVGILFSIGFLIIDFPMAIALGLFIGALNMVPYLQIIGFLPTIVLAILKAADTGENFWVILAGALIVFIVVQAIQDGFLVPRIMGKITGLNPAIILLSLSIWGSLLGMLGMIIALPLTTLMLSYYQRFIINKEKIKYDRHEVTDNQSAEENTKK” as the sequence, how does the protein production read?
A: The protein production was “failed”.

Q: For “DIRPSKLLTWCQQQTEGYQHVNVTDLTTSWRSGLALCAIIHRFRPELINFDSLNEDDAVENNQLAFDVAEREFGIPPVTTGKEMASAQEPDKLSMVMYLSKFYELFRGTPLRPV”, which protein production is on record?
A: Its protein production is “not failed”.
